Assay results: PMC7474598

Columns and labels:
FLAG-SEPN1^D80A (human) = FLAG-SEPN1^D80A (human) (UniProt Q9NZV5); test: sucrose gradient sedimentation; lysates of HeLa cells treated for 2 h with DMSO or Tg; 4% to 20% sucrose gradients, 19 fractions, FLAG immunoblot; markers BSA, IgG, catalase
FLAG-SEPN1^U428C (human) = FLAG-SEPN1^U428C (human) (UniProt Q9NZV5); test: as above

percent monomer (DMSO-treated cells) (FLAG-SEPN1^D80A (human))	percent monomer (Tg-treated cells) (FLAG-SEPN1^D80A (human))	percent oligomer (DMSO-treated cells) (FLAG-SEPN1^D80A (human))	percent oligomer (Tg-treated cells) (FLAG-SEPN1^D80A (human))	percent monomer (Tg-treated cells) (FLAG-SEPN1^U428C (human))	percent oligomer (DMSO-treated cells) (FLAG-SEPN1^U428C (human))	Substance
79.7%	78.4%	21.5%	21.5%	–	–	FLAG-SEPN1^D80A (from UniProt Q9NZV5-2 44-556) (natural protein)
–	–	–	–	61.8%	96.2%	FLAG-SEPN1^U428C (from UniProt Q9NZV5-2 44-556) (natural protein)
